The supplement of paper PMC12764529
± gives the half width of the 95% confidence interval.

Assay: folding stability dG unfold (combined trypsin and chymotrypsin); higher = more stable
How it was run: (§1)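 Unfolding free energy was derived, per protease or combined, against a sequence-predicted unfolded-state K50 and a shared folded-state K50, starting from K50 inferred by Bayesian fitting of sequencing counts. Digestion with trypsin and chymotrypsin was carried out on designed mini-proteins under 80 residues without cysteine in a PA-tagged cDNA display construct. Only designs with AlphaFold2 dimer inter-PAE above 15 were kept.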

| Sequence | folding stability dG unfold |
| --- | --- |
| SAGGSAGGSAMPPDAKPVRTETDPATGTTTEYILYPDSDTTIRKTHLPDGSVQVEEFSVSKTSAGGSAGGSA [r18_521_JUSTAS] | -0.491 ± 0.29 kcal/mol |
| SAGKKYKVKKKITLTLEDGSKITIEIVENEDGTVEIKITDSNGKTRTITIPKEKLENMSLEELLKLLKSAGG [r19_47_TrROS_Hall] | 1.92 ± 0.22 kcal/mol |
| SAGGKLPLPPGTEVEFLFRSPLDPRRLYLVRVRFEPVPPDRLRLRPRVFNPETGEEVEFEFEVPLDEGSAGG [r13_268_TrMRF] | 3 ± 0.052 kcal/mol |
| SAGGETKTFTIDEIRAKLKEALDNGIDEVRITVFRDGKEEEITIPASKLDEIIASLPPDATVRIERVSAGGS [r16_636_TrROS_Hall] | 1.97 ± 0.13 kcal/mol |
| SWWYMVKIEIENGGKPIKIPVPVNDLDDFIDNAREAIPPDLADQLPPNMEVEVEVMPIPRVDPENGKPRPSA [r9_111_TrROS] | 1.1 ± 0.15 kcal/mol |
| SAGGSAGGSANWYIRIHSPNGQPIWFPMKIKNVTPKGGEIEFKMRNPNGREMPFRVEIFPLESAGGSAGGSA [r18_163_TrROS] | 0.981 ± 0.13 kcal/mol |
| SAGGSAALVLSREEFDGEVLLTLRDPETGEELLARLTYVPEENLVRLETTFPDGSTTTSVLPASALSAGGSA [r15_1055_JUSTAS] | 1.75 ± 0.033 kcal/mol |
| SAGGSAPWRPITITIPGSWEEIKELAKKFVNDGNIRDVEVEPVPDPGYYKVTVWVRDPNGNWYLVFSAGGSA [r15_177_TrROS] | 2.9 ± 0.2 kcal/mol |
| SAMTVYYKITAEVEKTIGDTPETLTVPLTLTVPPDKLNEEEIKKIAEEKAKELGYTLKKIEISKTPSLPSAG [r14_278_JUSTAS] | 2.11 ± 0.21 kcal/mol |
| SAGGSAGGSAKTVVINIKDLKLSKDGKLTVEEIKKRIKELLKKKGIKKVTVKTVEELLKALKSAGGSAGGSA [r18_72_TrROS_Hall] | 1.26 ± 0.074 kcal/mol |
| SAGGSAGGSAGGVEIPPDKPVAIEVTSPEGPTATLIFDPKDGTVTVIEGGKPVEVPAEDFSAGGSAGGSAGG [r7_937_TrMRF] | -0.377 ± 0.29 kcal/mol |
| SAGGSMSESEVVEVTVGGKPVTITVHREDNRYSAEVTLPPGVRVVLPFGGPESPEKAVEEAVRALESAGGSA [r2_92_JUSTAS] | 0.425 ± 0.065 kcal/mol |
| SAGGSAGGSAMPKVTIKITVYNAETGELRTVTLTLPEEDMSLEEIAAALPPGWRIVKVELLSAGGSAGGSAG [r3_80_TrROS_Hall] | 4.34 ± 0.075 kcal/mol |
| SKKPDYVILIEIEVEKNENGEKTIKKKIIIYDKNGKKKLIAEEEITIEVNGIKIKIKIKIFPKGASLEELSA [r9_1113_TrROS_Hall] | 2.87 ± 0.2 kcal/mol |
| SAGGSAMTVVKVTLKSPSGTTTVTLPAEEWERFLAAPEVSKTWTLTEVVEEEEPPPELDPEAVELGSAGGSA [r15_460_JUSTAS] | 0.864 ± 0.3 kcal/mol |
| SAGGSAGGSAKTITITVKPEDMTEEELKEKIAEELGIDPEEIEIVKVEKLPNGEVKVTIKIKSAGGSAGGSA [r18_118_TrROS_Hall] | 3.08 ± 0.16 kcal/mol |
| SAGGSAGGSDMTMTYIIPLPDYAIVISFKIEITEVEYNPENGKPVKFRFDIEIKIEVFPPGDLSAGGSAGGS [r12_809_TrROS] | 4.38 ± 0.29 kcal/mol |
| SAGGSAGGSAGGKPNEVRVANIPIYRRLENGGWELIRPLPIVVPVDASVDFVLDAFKKYSAGGSAGGSAGGS [r10_470_TrMRF] | 0.658 ± 0.048 kcal/mol |
| SAGMIATITITRPGTGSITLTVPVPVPSEEEARAYAEAVREALRAADPGPLEVSVEFERVPPVPPERLGSAG [r5_87_JUSTAS] | 1.75 ± 0.1 kcal/mol |
| SAGGSAGGSAGKKKKKPKKKYVFIVIKINLSEEELKKLAEELGIDKVFKNENGYAVLVVKSAGGSAGGSAGG [r11_64_TrROS_Hall] | 3.15 ± 0.13 kcal/mol |
| SAGGSAGGSPPNKEVYIRIKIEYDGPNGQPIMEFWIPADEITPSFIEELMNRGGIKVDIELIPSAGGSAGGS [r12_398_TrROS] | 2.84 ± 0.1 kcal/mol |

Assay: folding stability dG unfold from chymotrypsin proteolysis; higher = more stable
How it was run: as §1

| Sequence | folding stability dG unfold |
| --- | --- |
| SAGGSAGGSAGVVVKKPGTDVVYEITEEPGSYKVTITDPKTGTTKEFTVSPEVSIESLLLSAGGSAGGSAGG [r11_772_JUSTAS] | 0.757 ± 0.13 kcal/mol |
| SAGGSAGGSGGFLVLEFEIEVDPEDPEKALAVVEALVESLGFEPVLIEVEEDENRVRVRVLLGSAGGSAGGS [r12_731_TrMRF] | 3.11 ± 0.13 kcal/mol |
| SAMTITVTAPPGYTLNVTVTLAGGVPLTRTFSPSQSIDITIPEGTPFSLTVTTTAPGGEVATSTLTVPLSAG [r14_568_JUSTAS] | 3.171 ± 0.018 kcal/mol |
| SAGGSAGGSAGNMWDQALRAAREAKDQGDEEVVIHFPPNMKNWVKEWAEDLGWPIKIQPTSAGGSAGGSAGG [r11_371_TrROS] | 0.027 ± 0.25 kcal/mol |
| SAGGSAGGSAKKITVEITIEVNGKKYKVKAEIELDEETKTLTIKVTFPDGTEFEFTFKLPEESAGGSAGGSA [r18_239_TrROS_Hall] | 5.72 ± 0.13 kcal/mol |
| SAGGKTIVIELTPEEVEELLKKLLEELKKKAEENPDAKITIVITTPDGRTYTITIDLKTGKITIEELPSAGG [r13_216_TrROS_Hall] | 3.93 ± 0.13 kcal/mol |
| SAGFGVYKHKYKYDNDDGNPKPKKPEEEPVEPAPPIEPLPIPIRLPDGQPFTFTILSISPKNNNISLNGSAG [r5_735_TrROS] | 0.382 ± 0.2 kcal/mol |
| SAGFWIRIDPKNPRIYISGMPPGMIELIAENAGAPDVTPVKPGRPWWDARDNHPDPDAVIPIPPENMMSAGG [r19_270_TrROS] | -0.39 ± 0.39 kcal/mol |
| SAGGSMKIVKIEKIDLAKLKPGDIIEVKLENGEIYRIRIEKNEDGKYTVYIYNKNGELVEEFEFDVSAGGSA [r2_323_TrROS_Hall] | 4.25 ± 0.034 kcal/mol |
| SAGGGVTITLKTADGKTLTLEIPGLTSVTVEPDKVTVEFEIPDYRITITFNPSTGTVEIKISHPDEPESAGG [r13_392_TrMRF] | 3.93 ± 0.19 kcal/mol |
| SAGGDVTISIMIFVWPGWTEEQYKEMAKEVAKTIARQLAQKNPDLNENIDIEDIEVTIIPMEGDPDYFSAGG [r13_128_TrROS] | 1.35 ± 0.1 kcal/mol |
| SAGGSAGGSAGGKKIRFYFPNGNPVELTEILDVDPEDKWARIDVEHNGKKHKHPMPADDLSAGGSAGGSAGG [r7_236_TrROS] | -1.19 ± 0.39 kcal/mol |
| SAGGSAGGSAGGMYVAVVTRPDGSRLVVETEPGEEIELFTEDGRPLGITAVAPVDEEAFSAGGSAGGSAGGS [r10_422_TrMRF] | -0.334 ± 0.18 kcal/mol |
| SPSADAKVRVEPLPGPGYLATLEDGSLVLVHPDGTVIEVTETKVRIRVFTPDKPLLELEIEIPPPAPDEPSA [r9_901_TrMRF] | 1.26 ± 0.066 kcal/mol |
| SAGGPVVEKIRELLKELGYEVEVTDVKEDYVEIKVKLPDKEITLPDGSKIERLENGELRIWIPKEDLSAGGS [r8_297_TrROS_Hall] | 3.4 ± 0.088 kcal/mol |
| SAGMLRVDIEIPPAFRKMLKNAPPGETVMFELPIKIKIEYYQPDGGKPEPKEHEQPFPVQFMVVLPPDGSAG [r5_946_TrROS] | 3.18 ± 0.12 kcal/mol |
| SAGGMVTSTVSVDPSVPKTTTTETFSDGTRVVTTTTELPSGLTVTTTTVTVPPDGSTTATSTTTTIAPSAGG [r13_230_JUSTAS] | 0.958 ± 0.044 kcal/mol |
| SAGGMTILFEADSLEEARQAVEDLLRDLGIPAIAERITVEERTFRLPAGPGTRRFVLVTIDLRLEPPSAGGS [r16_587_TrMRF] | 2.522 ± 0.021 kcal/mol |
| GFEVTAEIEVYEDPESGAKVVKVTIPVKNGDPEVLEKAAKELAKKLFGPGAKFDPKIDPETGRVEVTGVLAS [r1_273_TrMRF] | 1.57 ± 0.07 kcal/mol |
| SAKVSHLEFSLPNSVVTPEDLLAALEKLGFPPSKIKKMEIVKVKDNSYVVKIYLENEDGSDSIITLHLPSAG [r14_30_TrMRF] | 2.39 ± 0.066 kcal/mol |
| SAGGSAGGSAGGSPKVYVELRFKLPNNLYVEIRYEIDPEKPGYVDWEVRLFDENGNPLGSAGGSAGGSAGGS [r4_297_TrMRF] | 4.74 ± 0.096 kcal/mol |

| Sequence | folding stability dG unfold |
| --- | --- |
| SAGGSAGGSAMPPDAKPVRTETDPATGTTTEYILYPDSDTTIRKTHLPDGSVQVEEFSVSKTSAGGSAGGSA [r18_521_JUSTAS] | -0.491 ± 0.17 kcal/mol |
| SAGKKYKVKKKITLTLEDGSKITIEIVENEDGTVEIKITDSNGKTRTITIPKEKLENMSLEELLKLLKSAGG [r19_47_TrROS_Hall] | 1.73 ± 0.13 kcal/mol |
| SAGGKLPLPPGTEVEFLFRSPLDPRRLYLVRVRFEPVPPDRLRLRPRVFNPETGEEVEFEFEVPLDEGSAGG [r13_268_TrMRF] | 3.234 ± 0.025 kcal/mol |
| SAGGETKTFTIDEIRAKLKEALDNGIDEVRITVFRDGKEEEITIPASKLDEIIASLPPDATVRIERVSAGGS [r16_636_TrROS_Hall] | 1.86 ± 0.11 kcal/mol |
| SWWYMVKIEIENGGKPIKIPVPVNDLDDFIDNAREAIPPDLADQLPPNMEVEVEVMPIPRVDPENGKPRPSA [r9_111_TrROS] | 1.42 ± 0.15 kcal/mol |
| SAGGSAGGSANWYIRIHSPNGQPIWFPMKIKNVTPKGGEIEFKMRNPNGREMPFRVEIFPLESAGGSAGGSA [r18_163_TrROS] | 1.16 ± 0.22 kcal/mol |
| SAGGSAALVLSREEFDGEVLLTLRDPETGEELLARLTYVPEENLVRLETTFPDGSTTTSVLPASALSAGGSA [r15_1055_JUSTAS] | 1.59 ± 0.059 kcal/mol |
| SAGGSAPWRPITITIPGSWEEIKELAKKFVNDGNIRDVEVEPVPDPGYYKVTVWVRDPNGNWYLVFSAGGSA [r15_177_TrROS] | 3.204 ± 0.031 kcal/mol |
| SAMTVYYKITAEVEKTIGDTPETLTVPLTLTVPPDKLNEEEIKKIAEEKAKELGYTLKKIEISKTPSLPSAG [r14_278_JUSTAS] | 2.06 ± 0.17 kcal/mol |
| SAGGSAGGSAKTVVINIKDLKLSKDGKLTVEEIKKRIKELLKKKGIKKVTVKTVEELLKALKSAGGSAGGSA [r18_72_TrROS_Hall] | 1.41 ± 0.086 kcal/mol |
| SAGGSAGGSAGGVEIPPDKPVAIEVTSPEGPTATLIFDPKDGTVTVIEGGKPVEVPAEDFSAGGSAGGSAGG [r7_937_TrMRF] | -1.06 ± 0.53 kcal/mol |
| SAGGSMSESEVVEVTVGGKPVTITVHREDNRYSAEVTLPPGVRVVLPFGGPESPEKAVEEAVRALESAGGSA [r2_92_JUSTAS] | 0.508 ± 0.046 kcal/mol |
| SAGGSAGGSAMPKVTIKITVYNAETGELRTVTLTLPEEDMSLEEIAAALPPGWRIVKVELLSAGGSAGGSAG [r3_80_TrROS_Hall] | 4.65 ± 0.074 kcal/mol |
| SKKPDYVILIEIEVEKNENGEKTIKKKIIIYDKNGKKKLIAEEEITIEVNGIKIKIKIKIFPKGASLEELSA [r9_1113_TrROS_Hall] | 2.23 ± 0.16 kcal/mol |
| SAGGSAMTVVKVTLKSPSGTTTVTLPAEEWERFLAAPEVSKTWTLTEVVEEEEPPPELDPEAVELGSAGGSA [r15_460_JUSTAS] | 1.12 ± 0.15 kcal/mol |
| SAGGSAGGSAKTITITVKPEDMTEEELKEKIAEELGIDPEEIEIVKVEKLPNGEVKVTIKIKSAGGSAGGSA [r18_118_TrROS_Hall] | 1.93 ± 0.11 kcal/mol |
| SAGGSAGGSDMTMTYIIPLPDYAIVISFKIEITEVEYNPENGKPVKFRFDIEIKIEVFPPGDLSAGGSAGGS [r12_809_TrROS] | 4.68 ± 0.19 kcal/mol |
| SAGGSAGGSAGGKPNEVRVANIPIYRRLENGGWELIRPLPIVVPVDASVDFVLDAFKKYSAGGSAGGSAGGS [r10_470_TrMRF] | 0.815 ± 0.076 kcal/mol |
| SAGMIATITITRPGTGSITLTVPVPVPSEEEARAYAEAVREALRAADPGPLEVSVEFERVPPVPPERLGSAG [r5_87_JUSTAS] | 1.85 ± 0.036 kcal/mol |
| SAGGSAGGSAGKKKKKPKKKYVFIVIKINLSEEELKKLAEELGIDKVFKNENGYAVLVVKSAGGSAGGSAGG [r11_64_TrROS_Hall] | 3.56 ± 0.059 kcal/mol |
| SAGGSAGGSPPNKEVYIRIKIEYDGPNGQPIMEFWIPADEITPSFIEELMNRGGIKVDIELIPSAGGSAGGS [r12_398_TrROS] | 2.99 ± 0.032 kcal/mol |
